What was measured:
liver cancer cell Hep-G2 = assay: MTT assay, proliferation of liver cancer cell Hep-G2; format: cell-based
Experimental: (§1) The MTT assay was used to detect the inhibitory effect of the integrin blocker fusion protein obtained in Example 1 on the proliferation of various tumor cells, including melanoma cell B16F10, gastric cancer cell MGC-803, lung cancer cell A549, liver cancer cell Hep-G2, breast cancer cell MDA-MB-231, colon cancer cell HCT-116, human glioma U87, and cervical cancer cell Hela.
(§2) The tumor cells were cultured in a 5% CO2 incubator at 37° C. to a density of 90% or more, and collected by trypsinization. The cells were resuspended in the culture liquid and counted under a microscope. The cell concentration was adjusted to 3.0×10^4 cells/mL. The cell suspension was inoculated into a 96-well plate at 100 μL per well and cultured overnight in a 5% CO2 incubator at 37° C. […] After the cells were fully adhered, each dilution was added to a 96-well plate at 100 μL per well, respectively. […] 20 μL of 5 mg/mL MTT was added to each well of a 96-well plate, and incubation was continued for 4 hours. The medium was aspirated and 100 μL of DMSO per well were added to dissolve. The absorbance was measured at 570 nm with a microplate reader with a reference wavelength of 630 nm, and the proliferation inhibition (PI) was calculated. The formula is as follows: […]
(§3) where Ntest is the OD value of the test group and Ncontrol is the OD value of the blank control group.
(§4) The test was repeated 5 times independently. The results obtained from the test were calculated as mean±SD, and statistical t-test was performed. P<0.05 was considered as a significant difference, and P<0.01 was considered as an extremely significant difference.

[1] = tested on: cervical cancer cell Hela; assay: MTT assay, proliferation of cervical cancer cell Hela; format: cell-based
Experimental: as §1, §2, §3, §4

tampon granuloma in rat = format: in vivo
Experimental: 40 parts of degreasing cotton, 30 mg for each part, were accurately weighed with an analytical balance and kneaded into balls having substantially the same shape and size, which were autoclaved at […] for 30 min and dried at 50° C. for further use.
40 male SD rats were randomly divided into 4 groups with 10 rats for each group. […] Rats were anesthetized with sodium pentobarbital (40 mg/kg) via intraperitoneal injection before administration. The abdominal coat was cut off, and the skin of middle of the lower abdomen was cut under sterile conditions. The incision was about 1 cm long and the subcutaneous tissue was expanded with a vascular clamp. A sterile dry tampon was subcutaneously implanted into one side of the groin, the incision was sutured, and an appropriate amount of amoxicillin was spread at the incision to prevent infection. After the surgery was finished, the groups were administered once by injection from the day of surgery (EDSM needed to be administered twice a day). The rats were sacrificed by cervical dislocation at the 24th hour after administration, the inguinal skin was cut, the tampon was taken out together with the surrounding granulation tissue and the surrounding tissue was removed. After drying for additional 48 h in an oven at 60° C., the weight was accurately weighed. The granuloma weight was calculated: granuloma weight (mg/100 g body weight)=net weight of granulation (mg)/rat body weight (100 g).

[2] = tested on: toe swelling in rat induced by carrageenan; assay: Acute inflammation of toe swelling in rat induced by carrageenan; format: in vivo; conditions: for Swelling degree 1 h: 1 h after carrageenan; for Swelling degree 1 h / Swelling degree 3 h / Swelling degree 5 h / Swelling degree 7 h: rat foot; for Swelling degree 3 h: 3 h after carrageenan; for Swelling degree 5 h: 5 h after carrageenan; for Swelling degree 7 h: 7 h after carrageenan
Experimental: 80 SD rats were randomly divided into 8 groups with 10 mice for each group. […] The drug was administered once by injection, and the model group was given an equal volume of physiological saline and fed normally. On the third day, 0.1 mL of 1% carrageenan was injected subcutaneously into the right hind toes of the rats to induce inflammation. The foot volume was measured at 1 h, 3 h, 5 h, and 7 h after inflammation. The swelling degree of the foot was calculated according to the following formula: the swelling degree of the foot (mL)=the volume of the foot after inflammation—the volume before inflammation. The number of milliliters of spilled liquid was recorded (method: the protruding point of the right joint was circled with a ballpoint pen and used as a measurement mark, and the right hind feet of the rat were sequentially placed in the volume measuring device, so that the hind limbs were exposed outside the cylinder, and the depth of the immersion was limited to the overlap of the circle and the liquid level. After the foot entered the liquid, the liquid level was raised, and the volume of the spilled liquid was the volume of the right hind foot of the rat, and the normal volume of the right hind foot of each rat is sequentially determined).

B1: Protein II: IgG2-Fc linked to antiangiogenesis polypeptide EDSM-Y via a flexible linker; SEQ ID NO: 17 (protein)
chain: ERKCCVECPPCPAPPVAGPSVFLFPPKPKDTLMISRTPEVTCVVVDVSHEDPEVQFNWYVDGVEVHNAKTKPREEQFNSTFRVVSVLTVVHQDWLNGKEYKCKVSNKGLPAPIEKTISKTKGQPREPQVYTLPPSREEMTKNQVSLTCLVKGFYPSDISVEWESNGQPENNYKTTPPMLDSDGSFFLYSKLTVDKSRWQQGNVFSCSVMHEALHNHYTQKSLSLSPGKGGGGSGGGGSGGGGSFQPVLHLVALNSPLSGGMRGIRGADFQCFQQARAVGLAGTFRAGGGGRGD
- A570 nm/A630 nm (liver cancer cell Hep-G2; dose 1 μg/mL): 0.6746 ± 0.0372
- PI (%) (liver cancer cell Hep-G2; dose 1 μg/mL): 1.49%
- A570 nm/A630 nm (liver cancer cell Hep-G2; dose 2 μg/mL): 0.6132 ± 0.0253
- PI (%) (liver cancer cell Hep-G2; dose 2 μg/mL): 10.46%
- A570 nm/A630 nm (liver cancer cell Hep-G2; dose 4 μg/mL): 0.5799 ± 0.0396
- PI (%) (liver cancer cell Hep-G2; dose 4 μg/mL): 15.32%
- A570 nm/A630 nm (liver cancer cell Hep-G2; dose 8 μg/mL): 0.5499 ± 0.0215
- PI (%) (liver cancer cell Hep-G2; dose 8 μg/mL): 19.70%
- A570 nm/A630 nm (liver cancer cell Hep-G2; dose 16 μg/mL): 0.5190 ± 0.0185
- PI (%) (liver cancer cell Hep-G2; dose 16 μg/mL): 24.21%
- A570 nm/A630 nm (liver cancer cell Hep-G2; dose 32 μg/mL): 0.4706 ± 0.0374
- PI (%) (liver cancer cell Hep-G2; dose 32 μg/mL): 31.28%
- A570 nm/A630 nm (liver cancer cell Hep-G2; dose 64 μg/mL): 0.4256 ± 0.0268
- PI (%) (liver cancer cell Hep-G2; dose 64 μg/mL): 37.85%
- A570 nm/A630 nm (liver cancer cell Hep-G2; dose 128 μg/mL): 0.3801 ± 0.0174
- PI (%) (liver cancer cell Hep-G2; dose 128 μg/mL): 44.49%
- A570 nm/A630 nm (liver cancer cell Hep-G2; dose 256 μg/mL): 0.3156 ± 0.0151
- PI (%) (liver cancer cell Hep-G2; dose 256 μg/mL): 53.91%
- inhibitory effect on liver cancer cell Hep-G2 (liver cancer cell Hep-G2; in words): a certain inhibitory effect
- A570 nm/A630 nm ([1]; dose 1 μg/mL): 0.7798 ± 0.0386
- PI (%) ([1]; dose 1 μg/mL): 2.43%
- A570 nm/A630 nm ([1]; dose 2 μg/mL): 0.7412 ± 0.0407
- PI (%) ([1]; dose 2 μg/mL): 7.26%
- A570 nm/A630 nm ([1]; dose 4 μg/mL): 0.6946 ± 0.0272
- PI (%) ([1]; dose 4 μg/mL): 13.09%
- A570 nm/A630 nm ([1]; dose 8 μg/mL): 0.6312 ± 0.0313
- PI (%) ([1]; dose 8 μg/mL): 21.02%
- A570 nm/A630 nm ([1]; dose 16 μg/mL): 0.5418 ± 0.0286
- PI (%) ([1]; dose 16 μg/mL): 32.21%
- A570 nm/A630 nm ([1]; dose 32 μg/mL): 0.4788 ± 0.0262
- PI (%) ([1]; dose 32 μg/mL): 40.09%
- A570 nm/A630 nm ([1]; dose 64 μg/mL): 0.4023 ± 0.0314
- PI (%) ([1]; dose 64 μg/mL): 49.66%
- PI (%) ([1]; dose 64 μg/mL, listed as protein II): about 45%
- A570 nm/A630 nm ([1]; dose 128 μg/mL): 0.2878 ± 0.0275
- PI (%) ([1]; dose 128 μg/mL): 63.99%
- A570 nm/A630 nm ([1]; dose 256 μg/mL): 0.1748 ± 0.0303
- PI (%) ([1]; dose 256 μg/mL): 78.13%
- inhibition of tampon granuloma in rat (tampon granuloma in rat; effective dose of 64 mg/kg, compared with the blank model group): could significantly inhibit tampon granuloma in rat
- GranuLoma (mg)/Weight (100 g) (tampon granuloma in rat; rat, 64 mg/kg, injection): 0.23 ± 0.05 mg/100 g
- PI (%) (tampon granuloma in rat; rat, 64 mg/kg, injection): 55.77%
- Weight gain (tampon granuloma in rat; rat, in vivo, 64 mg/kg): 32.16 ± 10.13 g
- Swelling degree 1 h ([2]; 8 mg/kg): 0.29 ± 0.25 mL
- Swelling degree 3 h ([2]; 8 mg/kg): 0.34 ± 0.09 mL
- Swelling degree 5 h ([2]; 8 mg/kg): 0.36 ± 0.12 mL
- Swelling degree 7 h ([2]; 8 mg/kg): 0.41 ± 0.09 mL
- Swelling degree 1 h ([2]; 32 mg/kg): 0.27 ± 0.06 mL
- Swelling degree 3 h ([2]; 32 mg/kg): 0.41 ± 0.18 mL
- Swelling degree 5 h ([2]; 32 mg/kg): 0.37 ± 0.11 mL
- Swelling degree 7 h ([2]; 32 mg/kg): 0.33 ± 0.02 mL
- Swelling degree 1 h ([2]; 128 mg/kg): 0.21 ± 0.16 mL
- Swelling degree 3 h ([2]; 128 mg/kg): 0.32 ± 0.10 mL
- Swelling degree 5 h ([2]; 128 mg/kg): 0.41 ± 0.05 mL
- Swelling degree 7 h ([2]; 128 mg/kg): 0.36 ± 0.16 mL
- inhibition of toe swelling induced by carrageenan ([2]; high doses): could significantly inhibit toe swelling
- inhibition of toe swelling induced by carrageenan ([2]; low dose): not significant

Reference: patent publication US11407811B2, “Fusion protein, preparation method therefor and use thereof” (JIANGSU RONGTAI BIOTECH CO., LTD., priority 2017, dated 2022)
